Residue numbers refer to the chain shown, from its start.
T1: human CD19 (human, UniProt P15391 20-556)
T1 construct: whole, on cells; also called huCD19
T1 sequence (looked up): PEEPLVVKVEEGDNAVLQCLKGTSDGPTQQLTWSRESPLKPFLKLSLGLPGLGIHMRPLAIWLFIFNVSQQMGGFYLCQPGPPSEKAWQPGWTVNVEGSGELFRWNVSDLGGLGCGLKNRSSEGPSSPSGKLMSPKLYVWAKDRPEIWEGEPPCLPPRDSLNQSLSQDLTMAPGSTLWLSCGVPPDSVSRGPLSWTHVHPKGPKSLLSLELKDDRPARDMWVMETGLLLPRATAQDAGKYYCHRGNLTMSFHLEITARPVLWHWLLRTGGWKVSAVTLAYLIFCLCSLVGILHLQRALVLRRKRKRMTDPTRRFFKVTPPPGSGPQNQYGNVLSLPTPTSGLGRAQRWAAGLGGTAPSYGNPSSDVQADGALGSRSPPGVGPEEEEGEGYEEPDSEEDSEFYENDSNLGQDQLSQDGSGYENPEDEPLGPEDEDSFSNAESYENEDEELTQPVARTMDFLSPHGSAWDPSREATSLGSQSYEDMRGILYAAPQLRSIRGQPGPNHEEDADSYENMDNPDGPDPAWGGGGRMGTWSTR

B1: 10D8 antibody (antibody, human IgG1, V domains shown)
VH: QVQLVQSGAEVKKPGSSVKVSCKASGGTFSSYAISWVRQAPGQGLEWMGGIIPIFGTANYAQKFQGRVTITADESTSTAYMELSSLRSEDTAVYYCARDRGYDYVWGSYRYGAFDIWGQGTLVTVSS
VL: QSALTQPASVSGSPGQSITISCTGTSSDVGGYNYVSWYQQHPGKAPKLMIYEVSNRPSGVSNRFSGSKSGNTASLTISGLQAEDEADYYCSSYDVWVPHMVFGGGTKLTVL
notes: Tested as human IgG1; also called human IgG1 10D8 anti-CD19 antibody
B2: 7F1 antibody (antibody, human IgG1, V domains shown)
VH: EVQLVQSGAEVKKPGESLKISCKGSGYSFTSYWIGWVRQMPGKGLEWMGIIYPGDSDTRYSPSFQGQVTISADKSISTAYLQWSSLKASDTAMYYCARGDYWTGFAYWGQGTLVTVSS
VL: QSVLTQPPSVSAAPGQKVTISCSGSSSNIGNNYVSWYQQLPGTAPKLLIYDNNKRPSGIPDRFSGSKSGTSATLGITGLQTGDEADYYCGTWDLGWNSVFGGGTKLTVL
notes: Tested as human IgG1; also called human IgG1 7F1 anti-CD19 antibody
B3: 9G8 antibody (antibody, human IgG1, V domains shown)
VH: EVQLVQSGAEVKKPGESLKISCKGSGYSFTSYWIGWVRQMPGKGLEWMGIIYPGDSDTRYSPSFQGQVTISADKSISTAYLQWSSLKASDTAMYYCARGVSGIYNLHGFDIWGQGTLVTVSS
VL: DIQMTQSPSSLSASVGDRVTITCRASQSISSYLNWYQQKPGKAPKLLIYAASSLQSGVPSRFSGSGSGTDFTLTISSLQPEDFATYYCQQGRFGSPFTFGQGTKVEIK
notes: also called human IgG1 9G8 anti-CD19 antibody
B4: 7F11 antibody (antibody, human IgG1, V domains shown)
VH: B3 VH
VL: B3 VL with R92M, F93W, G94D, S95N
notes: Tested as human IgG1; also called human IgG1 7F11 anti-CD19 antibody
B5: 5F5 antibody (antibody, human IgG1, V domains shown)
VH: B3 VH with V100I
VL: B3 VL with G91A, R92S, F93L, G94D, F97L
notes: Tested as human IgG1; also called human IgG1 5F5 anti-CD19 antibody
B6: F6 antibody (antibody, human IgG1, V domains shown)
VH: EVQLVQSGAEVKKPGESLKISCKGSGYSFTSYWIGWVRQMPGKGLEWMGIIYPGDSDTRYSPSFQGQVTISADKSISTAYLQWSSLKASDTAMYYCARVWYYDFWSGADAFDIWGQGTLVTVSS
VL: EIVMTQSPATLSVSPGERATLSCRASQSVSSNLAWYQQKPGQAPRLLIYGASTRATGIPARFSGSGSGTEFTLTISSLQSEDFAVYYCQQGSLEAPQTFGQGTKVEIK
notes: Tested as human IgG1; also called human IgG1 F6 anti-CD19 antibody

Molecular target: T1, human CD19
Assay: flow cytometry on human versus cynomolgus PBMC; reference: binding to cynomolgus PBMC
Procedure: The ability of various anti-CD19 antibodies of the disclosure to bind various peripheral blood mononuclear cells (PBMC). Human and cynomolgus PBMC from frozen aliquots in citrate buffer were tested. […] The PBMC were labelled with anti-CD20-PE monoclonal antibody (mAb), anti-CD14-FITC mAb, and anti-CD3-PerCP mAb cross-reactive both to human and cynomolgus species. Cell surface bound hIgG1 were detected with a mouse anti-human IgG Fc-APC mAb. FACS gating was performed with the anti-CD20 mAb for the B lymphocyte population, with the anti-CD3 for the T lymphocyte population and with anti-CD14 for the monocyte population.

Binder	fold higher binding on human than on cynomolgus PBMC
B1	≤ 10 fold
B2	≤ 10 fold
B3	≤ 10 fold
B4	≤ 10 fold
B5	≤ 10 fold
B6	≤ 10 fold

Reference: patent US20230272070A1 (published 2023)
